In patent US20210145976A1 (ARO BIOTHERAPEUTICS, published 2021):

B1: SEQ ID NO 154 (designed binder)
chain: MLPAPKNLVVSRVTEDSARLSWTAPDAAFDSFFIPYAEPRPDGEAIVLTVPGSERSYDLTGLKPGTEYSVLIHGVKGGLLSSPLSAIFTT
notes: FN3 domain
B2: SEQ ID NO 133 (designed binder)
chain: MLPAPKNLVVSRVTEDSARLSWTAPDAAFDSFPIVYGEAWVTGEAIVLTVPGSERSYDLTGLKPGTEYDVWIEGVKGGELSWPLSAIFTT
notes: FN3 domain
B3: SEQ ID NO 98 (designed binder)
chain: MLPAPKNLVVSRITEDSARLSWTAPDAAFDSFDIPYGEFDTIGEAIVLTVPGSERSYDLTGLKPGTEYDVYIEGVKGGHLSWPLSAIFTT
notes: FN3 domain
B4: SEQ ID NO 116 (designed binder)
chain: MLPAPKNLVVSRVTEDSARLSWTAPDAAFDSFSIAYSEVRYDGEAIVLTVPGSERSYDLTGLKPGTEYVVPIGGVKGGGSSSPLSAIFTT
notes: FN3 domain
B5: SEQ ID NO 165 (designed binder)
chain: MLPARKNLVVSRVTEDSARLSWTAPDAAFDSFFIPYAEPSPTGEAIVLTVPGSERSYDLTGLKPGTEYSVLIHGVKGGHLSDPLSAISTT
notes: FN3 domain
B6: SEQ ID NO 135 (designed binder)
chain: MLPAPKNLVVSRVTEDSARLSWTAPDAAFDSFPISYYEMSGLGEAIVLTVPGSERSYDLTGLKPGTEYMVYIFGVKGGLNSLPLSAIFTT
notes: FN3 domain
B7: SEQ ID NO 160 (designed binder)
chain: MLPAPKNLVVSRVTEDSARLSWTAPDAAFDSFNIAYGEWRQHGEAIVLTVPGSERSYDLTGLKPGTEYDVFIDGVKGGNLSWPLSAIFTT
notes: FN3 domain
B8: SEQ ID NO 138 (designed binder)
chain: MLPAPKNLVVSRVTEDSARLSWTAPDAAFDSFFIKYIEWWADGEAIVLTVPGSERSYDLTGLKPGTEYLVEIYGVKGGRQSYPLSAIFTT
notes: FN3 domain
B9: SEQ ID NO 151 (designed binder)
chain: MLPAPKNLVVSRVTEDSARLSWTAPDAAFDSFFIPYAEPSPTGEAIVLTVPGSERSYDLTGLKPGTEYGVVILGVKGGYGSDPLSAIFTT
notes: FN3 domain
B10: SEQ ID NO 117 (designed binder)
chain: MLPAPKNLVVSRVTEDSARLSWTAPDAAFDSFTIPYGEAFNPGEAIVLTVPGSERSYDLTGLKPGTEYDVFIEGVKGGTLSWPLSAIFTT
notes: FN3 domain
B11: SEQ ID NO 125 (designed binder)
chain: MLPAPKNLVVSRVTEDSARLSWTAPDAAFDSFVIEYFEFVGEGEAIVLTVPGSERSYDLTGLKPGTEYDVGIYGVKGGSLSSPLSAIFTT
notes: FN3 domain
B12: SEQ ID NO 132 (designed binder)
chain: MLPAPKNLVVSRVTEDSARLSWTAPDAAFDSFTIVYAEVTYDGEAIVLTVPGSERSYDLTGLKPGTEYDVFIEGVKGGELSWPLSAIFTT
notes: FN3 domain
B13: SEQ ID NO 122 (designed binder)
chain: MLPAPKNLVVSRVTEDSARLSWTAPDAAFDSFQIPYWEQSLGGEAIVLTVPGSERSYDLTGLKPGTEYEVWIEGVKGGDLSFPLSAISTT
notes: FN3 domain
B14: SEQ ID NO 159 (designed binder)
chain: MLPAPKNLVVSRVTEDSARLSWTAPDAAFDSFLIPYAETSPSGEAIVLTVPGSERSYDLTGLKPGTEYSVLIHGVKGGRNSDPLSAIFTT
notes: FN3 domain
B15: SEQ ID NO 150 (designed binder)
chain: MLPAPKNLVVSRVTEDSARLSWTAPDAAFDSFPIAYAEPSPTGEAIVLTVPGSERSYDLTGLKPGTEYSVLIHGVKGGHLSDPLSAIFTT
notes: FN3 domain
B16: SEQ ID NO 123 (designed binder)
chain: MLPAPKNLVVSRVTEDSARLSWTAPDAAFDSFVIPYEEYLYTGEAIVLTVPGSERSYDLTGLKPGTEYDVWIEGVKGGLTSWPLSAIFTT
notes: FN3 domain
B17: SEQ ID NO 156 (designed binder)
chain: MLPAPKNLVVSRVTEDSARLSWTAPDAAFDSFAIEYFENLGIGEAIVLTVPGSERSYDLTGLKPGTEYVVNIYGVKGGWLSSPLSAIFTT
notes: FN3 domain
B18: SEQ ID NO 118 (designed binder)
chain: MLPAPKNLVVSRVTEDSARLSWTAPDAAFDSFRILYGEVDPWGEAIVLTVPGSERSYDLTGLKPGTEYDVWIEGVKGGKLSWPLSAIFTT
notes: FN3 domain
B19: SEQ ID NO 108 (designed binder)
chain: MLPAPKNLVVSRVTEDSARLSWTAPDAAFDSFTIIYGEVNPYGEAIVLTVPGSERSYDLTGLKPGTEYDVFIEGVKGGHLSWPLSAIFTT
notes: FN3 domain
B20: SEQ ID NO 88 (designed binder)
chain: MLPAPKNLVVSRVTEDSARLSWTAPDAAFDSFWIEYFEWTVGGEAIVLTVPGSERSYDLTGLKPGTEYYVSIYGVKGGWLSPPLSAIFTT
notes: FN3 domain
B21: SEQ ID NO 101 (designed binder)
chain: MLPAPKNLVVSRVTEDSARLSWTAPDAAFDSFAIDYDEPINSGEAIVLTVPGSERSYDLTGPKPGTEYEVEIYGVKGGYLSRPLSAIFTT
notes: FN3 domain
B22: SEQ ID NO 90 (designed binder)
chain: MLPAPKNLVVSRVTEDSARLSWTAPDAAFDSFTIHYWEFDPPGEAIVLTVPGSERSYDLTGLKPGTEYTVYIEGVKGGWWSKPLSAIFTT
notes: FN3 domain
B23: SEQ ID NO 147 (designed binder)
chain: MLPAPKNLVVSRVTEDSARLSWTAPDAAFDSFFIGYLEPQPPGEAIVLTVPGSERSYDLTGLKPGTEYSVLIHGVKGGRNSDPLSAISTT
notes: FN3 domain
B24: SEQ ID NO 166 (designed binder)
chain: MLPAPKNLVVSRVTEDSARLSWTAPDAAFDSFTILYNEIQNVGEAIVLTVPGSERSYDLTGLKPGTEYDVWIEGVKGGELSWPLSAIFTT
notes: FN3 domain
B25: SEQ ID NO 93 (designed binder)
chain: MLPAPKNLVVSRVTEDSARLSWTAPDAAFDSFYIGYLEPGDNGEAIVLTVPGSERSYDLTGLKPGTEYNVSIGGVKGGLGSYPLSAIFTT
notes: FN3 domain
B26: SEQ ID NO 110 (designed binder)
chain: MLPAPKNLVVSRVTEDSARLSWTAPDAAFDSFFIHYHEWWEAGEAIVLTVPGSERSYDLTGLKPGTEYLVDIPGVKGGDLSVPLSAIFTT
notes: FN3 domain
B27: SEQ ID NO 82 (designed binder)
chain: MLPAPKNLVVSRVTEDSARLSWTAPDAAFDSFAIAYVEWWKLGEAIVLTVPGSERSYDLTGLKPGTEYVVPIPGVKGGGHSSPLSAIFTT
notes: FN3 domain
B28: SEQ ID NO 158 (designed binder)
chain: MLPAPKNLVVSRVTEDSARLSWTAPDAAFDSFIIDYLELDDYGEAIVLTVPGSERSYDLTGLKPGTEYPVYIYGVKGGLPSTPLSAIFTT
notes: FN3 domain
B29: SEQ ID NO 114 (designed binder)
chain: MLPAPKNLVVSRVTEDSARLSWTAPDAAFDSFAIEYWEAVGSGEAIVLTVPGSERSYDLTGLKPGTEYHVYIYGVKGGYLSLPLSAIFTT
notes: FN3 domain
B30: SEQ ID NO 86 (designed binder)
chain: MLPAPKNLVVSRVTEDSARLSWTAPDAAFDSFIIWYAEWVNDGEAIVLTVPGSERSYDLTGLKPGTEYRVEITGVKGGTWSRPLSAIFTT
notes: FN3 domain
B31: SEQ ID NO 131 (designed binder)
chain: MLPAPKNLVVSRVTEDSARLSWTAPDAAFDSFSIDYYEGKGYGEAIVLTVPGSERSYDLTGLKPGTEYQVLISGVKGGKYSLPLSAIFTT
notes: FN3 domain
B32: SEQ ID NO 105 (designed binder)
chain: MLPAPKNLVVSRVTEDSARLSWTAPDAAFDSFGIAYYERSGAGEAIVLTVPGSERSYDLTGLKPGTEYMVYINGVKGGFVSSPLSAIFTT
notes: FN3 domain
B33: SEQ ID NO 141 (designed binder)
chain: MLPAPKNLVVSRVTEDSARLSWTAPDAAFDSFVIEYFEQFNLGEAIVLTVPGSERSYDLTGLKPGTEYLVGIYGVKGGWLSHPLSAIFTT
notes: FN3 domain
B34: SEQ ID NO 137 (designed binder)
chain: MLPAPKNLVVSRVTEDSARLSWTAPDAAFDSFEIEYDEPSVAGEAIVLTVPGSERSYDLTGLKPGTEYRVFIWGVKGGNQSWPLSAIFTT
notes: FN3 domain
B35: SEQ ID NO 144 (designed binder)
chain: MLPAPKNLVVSRVTEDSARLSWTAPDAAFDSFIIPYAEVRPDGEAIVLTVPGSERSYDLTGLKPGTEYSVLIHGVKGGKLSLPLSAIFTT
notes: FN3 domain
B36: SEQ ID NO 145 (designed binder)
chain: MLPAPKNLVVSRVTEDSARLSWTAPDAAFDSFFIPYAEPSPTGEAIVLTVPGSERSYDLTGLKPGTEYDVWIEGVKGGTLSWPLSAIFTT
notes: FN3 domain

How the values were obtained:
[1] = target: T1, recombinant biotinylated CD71 extracellular domain (Sino Biologics) with an N-terminal 6His tag (human, UniProt P02786 89-760, biotinylated (sites not given)); test: screening ELISA, ratio
T1 construct: extracellular domain; also called hCD71; huCD71
T1 sequence (P02786 other isoform, or with tags, fused parts or gaps): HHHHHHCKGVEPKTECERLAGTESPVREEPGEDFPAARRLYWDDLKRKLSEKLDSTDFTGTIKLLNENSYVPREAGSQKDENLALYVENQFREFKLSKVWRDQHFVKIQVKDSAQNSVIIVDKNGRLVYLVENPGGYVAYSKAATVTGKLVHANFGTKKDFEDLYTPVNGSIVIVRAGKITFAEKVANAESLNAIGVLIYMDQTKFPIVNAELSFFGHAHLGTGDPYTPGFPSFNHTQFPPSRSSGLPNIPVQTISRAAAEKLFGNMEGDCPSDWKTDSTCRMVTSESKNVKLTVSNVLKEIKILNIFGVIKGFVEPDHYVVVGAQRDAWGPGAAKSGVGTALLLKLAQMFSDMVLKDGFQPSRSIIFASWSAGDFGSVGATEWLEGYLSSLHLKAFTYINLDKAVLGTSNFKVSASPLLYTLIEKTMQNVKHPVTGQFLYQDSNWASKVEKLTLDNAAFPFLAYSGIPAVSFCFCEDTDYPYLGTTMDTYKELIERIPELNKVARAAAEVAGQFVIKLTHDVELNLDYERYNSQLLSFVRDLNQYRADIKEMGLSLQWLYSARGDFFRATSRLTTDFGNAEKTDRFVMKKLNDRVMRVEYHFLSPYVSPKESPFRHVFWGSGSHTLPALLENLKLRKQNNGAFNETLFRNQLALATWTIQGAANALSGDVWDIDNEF

[2] = target: T1, recombinant biotinylated CD71 …; test: screening ELISA

Binder	hCD71:HSA [1]	hCD71 [2]
B1	670	2.78e+06
B2	855	4.28e+06
B3	75	1.16e+06
B4	358	536000
B5	41	2.64e+06
B6	1370	2.06e+06
B7	836	2.76e+06
B8	1190	4.18e+06
B9	32	1.77e+06
B10	64	1.5e+06
B11	2220	2.33e+06
B12	1170	2.75e+06
B13	78	2.31e+06
B14	1320	2.58e+06
B15	748	2.62e+06
B16	228	707000
B17	206	1.03e+06
B18	119	2.24e+06

Binder	hCD71:HSA [1]	hCD71 [2]
B19	2450	3.19e+06
B20	118	708000
B21	216	1.97e+06
B22	429	1.09e+06
B23	33	2.36e+06
B24	480	2.42e+06
B25	1310	2.16e+06
B26	89	1.68e+06
B27	187	3.53e+06
B28	1520	2.06e+06
B29	780	3.27e+06
B30	1510	3.39e+06
B31	910	2.18e+06
B32	1260	1.76e+06
B33	648	2.04e+06
B34	236	484000
B35	986	2.71e+06
B36	33	1.62e+06
